Drawing on publication PMC3169596, “G4-DNA Formation in the HRAS Promoter and Rational Design of Decoy Oligonucleotides for Cancer Therapy”, this text covers Kd for 1 molecule.

For the series, the target named is T1, MAZ-GST (UniProt P56270 1-477).
T1 sequence: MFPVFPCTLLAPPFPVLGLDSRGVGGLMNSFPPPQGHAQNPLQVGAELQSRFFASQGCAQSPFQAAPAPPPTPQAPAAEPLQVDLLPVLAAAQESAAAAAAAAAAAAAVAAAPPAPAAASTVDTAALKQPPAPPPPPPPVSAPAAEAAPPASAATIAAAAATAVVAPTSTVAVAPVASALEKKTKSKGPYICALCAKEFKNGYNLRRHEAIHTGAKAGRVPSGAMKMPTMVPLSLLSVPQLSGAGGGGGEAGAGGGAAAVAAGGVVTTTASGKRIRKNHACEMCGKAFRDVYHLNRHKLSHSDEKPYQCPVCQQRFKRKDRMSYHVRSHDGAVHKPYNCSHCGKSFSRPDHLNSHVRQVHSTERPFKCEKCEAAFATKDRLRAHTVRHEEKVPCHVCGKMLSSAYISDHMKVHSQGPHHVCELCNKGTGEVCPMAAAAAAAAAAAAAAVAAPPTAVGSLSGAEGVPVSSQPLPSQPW
The experiment in a line: EMSA; 50 mM KCl, pH 7.4, poly d(I-C); apparent Kd given for the HRAS quadruplexes together; EMSA: 20 mM Tris-HCl pH 8, 30 mM KCl, 1.5 mM MgCl2, 1 mM DTT, 8% glycerol, 5 mM NaF, 1 mM Na3VO4, 2.5 ng/ml poly[dI-dC], 30 min room temperature (Figure 6c: pH). As to conditions: protein: recombinant; tags: GST; label: 33P; antiparallel intramolecular G4 in K+.

Take TCGGGTTGCGGGCGCAGGGCACGGGCG (structured_DNA) [qhras-1 (quadruplex hras-1, H1)]: the Kd is about 1500 nM.
